Measured values taken from paper PMC11237949, “Structure and dynamics of the staphylococcal pyridoxal 5-phosphate synthase complex reveal transient interactions at the enzyme interface” (The Journal of Biological Chemistry, 2024).

B1: Staphylococcus aureus Pdx1 (PLP synthase subunit) (enzyme, S. aureus, UniProt A5IQ72 1-295, looked up)
chain: MSKIIGSDRVKRGMAEMQKGGVIMDVVNAEQARIAEEAGAVAVMALERVPSDIRAAGGVARMANPKIVEEVMNAVSIPVMAKARIGHITEARVLEAMGVDYIDESEVLTPADEEYHLRKDQFTVPFVCGCRNLGEAARRIGEGAAMLRTKGEPGTGNIVEAVRHMRQVNSEVSRLTVMNDDEIMTFAKDIGAPYEILKQIKDNGRLPVVNFAAGGVATPQDAALMMELGADGVFVGSGIFKSEDPEKFAKAIVQATTHYQDYELIGRLASELGTAMKGLDINQLSLEERMQERGW
notes: Pdx1 of S. aureus; Cloned into both pETM11/LIC (6xHis-TEV) and pETTRXA-1a/LIC (6xHis-TRX-TEV); Forms hexamers or dodecamers depending on the buffer; also called SaPdx1; source: E. coli Rosetta (DE3), purified (Ni-NTA, TEV cleavage, second Ni-NTA, SEC on Superdex 200); not shown: His6, N-terminal, cleaved

Key:
SaPdx1 = target: T1, SaPdx1 (Staphylococcus aureus, UniProt Q2G0Q1); test: PLP Schiff base with Tris, absorbance […] nm; type: biochemical; details: with R5P (1 mM in standard mix) and 20 mM ammonium sulfate, 40 uM enzyme, 50 mM Tris-HCl pH 8, 150 mM NaCl, 37 °C; apparent; substrate inhibition at high G3P
T1 construct: gene pdxS; synthetic gene, E. coli Rosetta (DE3), N-terminal 6xHis (TRX)-TEV tag cleaved; 297 residues printed; hexamer/dodecamer, dodecamer active; assayed without Pdx2, with ammonium sulfate
T1 sequence (Q2G0Q1 1-295): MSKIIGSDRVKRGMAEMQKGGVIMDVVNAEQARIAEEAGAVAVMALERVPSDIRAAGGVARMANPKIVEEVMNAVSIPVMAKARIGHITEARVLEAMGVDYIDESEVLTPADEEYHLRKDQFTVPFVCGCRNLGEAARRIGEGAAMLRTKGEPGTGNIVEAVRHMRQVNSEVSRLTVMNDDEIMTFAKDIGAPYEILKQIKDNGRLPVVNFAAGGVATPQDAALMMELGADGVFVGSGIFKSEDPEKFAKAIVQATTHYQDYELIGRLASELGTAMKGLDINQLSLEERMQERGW

[1] = target: T2, SaPLP synthase (SaPdx1 + SaPdx2) (Staphylococcus aureus, UniProt Q2G0Q1); test: PLP Schiff base with Tris, absorbance […] nm; type: biochemical; details: with R5P (1 mM in standard mix) and 20 mM glutamine, 40 uM Pdx1 and 40 uM Pdx2, 50 mM Tris-HCl pH 8, 150 mM NaCl, 37 °C; apparent; substrate inhibition at high G3P
T2 construct: gene pdxS; wild-type complex of separately expressed subunits, E. coli Rosetta (DE3), N-terminal His tags TEV-cleaved; up to 24-mer, substoichiometric in Pdx2 at rest, 12:12 in catalysis; with Pyridoxal 5'-phosphate synthase subunit PdxT
T2 sequence (Q2G0Q1 1-295): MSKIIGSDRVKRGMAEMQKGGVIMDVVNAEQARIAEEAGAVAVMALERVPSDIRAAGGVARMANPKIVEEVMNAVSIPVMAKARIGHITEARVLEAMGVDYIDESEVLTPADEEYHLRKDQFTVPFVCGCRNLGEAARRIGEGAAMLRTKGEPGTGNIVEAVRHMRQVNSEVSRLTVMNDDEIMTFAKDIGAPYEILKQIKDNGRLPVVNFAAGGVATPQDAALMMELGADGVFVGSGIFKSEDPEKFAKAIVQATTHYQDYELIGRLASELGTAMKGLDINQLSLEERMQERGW
T2 sequence (Q2G0Q0 1-186 partner): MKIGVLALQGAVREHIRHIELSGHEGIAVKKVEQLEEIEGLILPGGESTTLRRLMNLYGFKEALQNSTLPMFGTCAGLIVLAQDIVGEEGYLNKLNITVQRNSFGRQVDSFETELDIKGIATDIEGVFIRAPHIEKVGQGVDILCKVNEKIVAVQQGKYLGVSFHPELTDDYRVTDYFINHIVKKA

[2] = target: the molecule itself; test: SEC + other: dynamic light scattering; SaPdx1 purified in Tris-HCl buffer
[3] = target: B1; test: cell-based or functional assay
[4] = target: B1; test: SAXS; SEC-SAXS of the SaPdx1-SaPdx2 complexes (WT and mutant), 7 mg/ml, Superose 6 Increase 10/300; volume fractions of stoichiometries estimated with OLIGOMER from AF2-based models; details: both partners purified

O=C[C@H](O)COP(=O)(O)O [glyceraldehyde 3-phosphate]
Glyceraldehyde 3-phosphate / Ki (SaPdx1): 3.3 ± 0.9 mM | Glyceraldehyde 3-phosphate / Ki [1]: 1.9 ± 0.9 mM

B1
stoichiometry N [2]: 6

B2: Staphylococcus aureus Pdx2 (glutaminase subunit), wild type (enzyme, S. aureus, UniProt A5IQ73 1-186, looked up)
chain: MKIGVLALQGAVREHIRHIELSGHEGIAVKKVEQLEEIEGLILPGGESTTLRRLMNLYGFKEALQNSTLPMFGTCAGLIVLAQDIVGEEGYLNKLNITVQRNSFGRQVDSFETELDIKGIATDIEGVFIRAPHIEKVGQGVDILCKVNEKIVAVQQGKYLGVSFHPELTDDYRVTDYFINHIVKKA
increase in the apparent kcat/KM ratio of PLP synthesis (G3P varied) for the SaPLP complex compared to SaPdx1 + ammonia [3]: 5.7 fold | increase in the apparent kcat/KM ratio of PLP synthesis (R5P varied) for the SaPLP complex compared to SaPdx1 + ammonia [3]: ~21 fold

B3: Staphylococcus aureus Pdx2 H165N (enzyme)
chain: MKIGVLALQGAVREHIRHIELSGHEGIAVKKVEQLEEIEGLILPGGESTTLRRLMNLYGFKEALQNSTLPMFGTCAGLIVLAQDIVGEEGYLNKLNITVQRNSFGRQVDSFETELDIKGIATDIEGVFIRAPHIEKVGQGVDILCKVNEKIVAVQQGKYLGVSFNPELTDDYRVTDYFINHIVKKA
notes: also called SaPdx2mut; SaPdx2_(H165N); source: E. coli Rosetta (DE3), purified (Ni-NTA, TEV cleavage, second Ni-NTA, SEC on Superdex 75)
stoichiometry N [4]: 1
